Measurements reported in publication PMC2095792 (Nucleic Acids Research, 2007).

Biological target: the molecule itself
Assay: pull-down

B1: Pop4p (natural protein)
chain: MDRTQTFIKDCLFTKCLEDPEKPFNENRFQDTLLLLPTDGGLTSRLQRQQRKSKLNLDNLQKVSQLESADKQLEKRDYQRINKNSKIALREYINNCKKNTKKCLKLAYENKITDKEDLLHYIEEKHPTIYESLPQYVDFVPMYKELWINYIKELLNITKNLKTFNGSLALLKLSMADYNGALLRVTKSKNKTLIGLQGIVIWDSQKFFIMIVKGNIIDEIKCIPKKGTVFQFEIPISDDDDSALRYSILGDRFKYRSVDRAGRKFKSRRCDDMLYYIQN
modifications: 32P-phosphate on the RRASV site (bovine heart kinase), in the untagged radiolabelled form only
- binding result: binds

B2: Rpp1p (natural protein)
chain: MLVDLNVPWPQNSYADKVTSQAVNNLIKTLSTLHMLGYTHIAINFTVNHSEKFPNDVKLLNPIDIKRRFGELMDRTGLKLYSRITLIIDDPSKGQSLSKISQAFDIVAALPISEKGLTLSTTNLDIDLLTFQYGSRLPTFLKHKSICSCVNRGVKLEIVYGYALRDVQARRQFVSNVRSVIRSSRSRGIVIGSGAMSPLECRNILGVTSLIKNLGLPSDRCSKAMGDLASLVLLNGRLRNKSHKQTIVTGGGSGNGDDVVNDVQGIDDVQTIKVVKRSMDAEQLGHASKRHKP
modifications: 32P-phosphate on the RRASV site (bovine heart kinase), in the untagged radiolabelled form only
- binding result: binds

B3: Pop3p (natural protein)
chain: MSGSLKSLDKKIAKRRQVYKPVLDNPFTNEAHMWPRVHDQPLIWQLLQSSIINKLIHIQSKENYPWELYTDFNEIVQYLSGAHGNSDPVCLFVCNKDPDVPLVLLQQIPLLCYMAPMTVKLVQLPKSAMDTFKSVSKYGMLLLRCDDRVDKKFVSQIQKNVDLLQFPWLNAIKYRPTSVKLLKTTVPIVSKKRQK
modifications: 32P-phosphate on the RRASV site (bovine heart kinase), in the untagged radiolabelled form only
- binding result: binds

B4: Pop1p (natural protein)
chain: MSGSLSRGNGGKKVLNKNQLLKRNRIRNARSIRAEAVAASSTKTGTPSDLSESGSKLNVDQFISSRQFEVKQLQLAMHNSKAASSTRIFQALPRKLRRRTASHNVRRIPKRMRNRALREMRKSDQQDVLKGSSASSRKAHGLNAKQLYKARMSIKLLRLASKSTSMKLSMPPEVTSSNCHVRQKIKTLKRMIKESSTANPNIKLLNNRMGSYDCTGVNELAPIPKGRVKYTKRQKHFAWLPTHIWNAKRSHMMKRWGYQMVWAPTQKCFKLTHRLGGDTCSSDGALCMDSSYIGTIIVKDKSNDSEGDFLKSIIGKLTAERANLRKYREGQVLFQGLIYSFNEENGEDSTKPLGPCDVFWVQKDTAIIRLHPSIYTQVFNILLQHKEKLTVQDCRYSLASVTLKGAKALESLASCLRSTEYSKSFEQFKMVSMITDHNALPQRCTFAFEAIDPRHLAAPKKLNDSQRKTVNSDDILSLHENYPQDEINAVFNELCDPESRTQSYNNQNTLKEISARRYKLLTATPNSINKTTVPFKESDDPSIPLVIIRRLKTRDWIVVLPWFWLLPLWHLLNRIPRMYHIGLRQFQQIQYENKQLYFPDDYPFTQLGYIENSFYKKEASKTKWDRKPMGKRINFEKIKDIHNTKLPAYSGEIGDFFSSDWRFLQILRNGIDYLQRNDKTLELMDSKKTGQFNAQGVRDINCVNDVLEFCKDYEAKTKAMSLSIEENIPVALCKNRKCQFRTPDSISVNSSSFSLTFFPRCIIAVSCTLLERGHPKDNARIYQVPEKDLEHWLQLAKGVYRPNGRKDHDLKIPLPEVHDLIGFITSGTYHLNCGNGMGIGFIDHHAAIRQPTRYVLIRNVGTNTYRLGEWSKISV
modifications: 32P-phosphate on the RRASV site (bovine heart kinase), in the untagged radiolabelled form only
- binding result: binds
